Laboratory results reported in IntAct's records for PubMed 25588830.

B1: Septin-12 (Homo sapiens), Q8IYM1 (parent)
chain: MDPLRRSPSPCLSSQPSSPSTPPCEMLGPVGIEAVLDQLKIKAMKMGFEFNIMVVGQSGLGKSTMVNTLFKSKVWKSNPPGLGVPTPQTLQLHSLTHVIEEKGVKLKLTVTDTPGFGDQINNDNCWDPILGYINEQYEQYLQEEILITRQRHIPDTRVHCCVYFVPPTGHCLRPLDIEFLQRLCRTVNVVPVIARADSLTMEEREAFRRRIQQNLRTHCIDVYPQMCFDEDINDKILNSKLRDRIPFAVVGADQEHLVNGRCVLGRKTKWGIIEVENMAHCEFPLLRDLLIRSHLQDLKDITHNIHYENYRVIRLNESHLLPRGPGWVNLAPASPGQLTTPRTFKVCRGAHDDSDDEF
partner: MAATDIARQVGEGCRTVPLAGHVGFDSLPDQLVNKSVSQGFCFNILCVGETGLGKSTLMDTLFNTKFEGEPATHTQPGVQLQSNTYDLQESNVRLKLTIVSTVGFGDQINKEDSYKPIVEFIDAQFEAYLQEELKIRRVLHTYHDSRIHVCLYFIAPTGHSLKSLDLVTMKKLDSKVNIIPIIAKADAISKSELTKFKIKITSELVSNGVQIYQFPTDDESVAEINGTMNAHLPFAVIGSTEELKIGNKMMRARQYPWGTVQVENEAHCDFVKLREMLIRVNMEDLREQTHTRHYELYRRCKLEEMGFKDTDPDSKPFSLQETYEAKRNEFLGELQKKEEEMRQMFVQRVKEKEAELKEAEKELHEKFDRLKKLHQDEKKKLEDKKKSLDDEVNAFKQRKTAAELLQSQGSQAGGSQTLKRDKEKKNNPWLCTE
B2: Septin-12 (Homo sapiens), Q8IYM1 (parent)
chain: B1 chain
partner: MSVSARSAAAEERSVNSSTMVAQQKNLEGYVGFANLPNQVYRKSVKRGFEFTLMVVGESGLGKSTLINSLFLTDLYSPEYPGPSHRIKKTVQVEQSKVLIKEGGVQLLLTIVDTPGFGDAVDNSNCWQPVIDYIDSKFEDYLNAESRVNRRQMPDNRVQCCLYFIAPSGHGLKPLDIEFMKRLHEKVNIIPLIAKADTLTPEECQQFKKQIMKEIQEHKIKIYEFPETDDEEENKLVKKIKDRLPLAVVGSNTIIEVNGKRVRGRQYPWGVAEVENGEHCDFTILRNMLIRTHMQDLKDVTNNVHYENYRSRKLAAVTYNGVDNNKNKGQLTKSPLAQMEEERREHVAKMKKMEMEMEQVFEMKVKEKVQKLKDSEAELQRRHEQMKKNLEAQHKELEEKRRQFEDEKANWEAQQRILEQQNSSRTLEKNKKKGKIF
B3: Septin-12 (Homo sapiens), Q8IYM1 (parent)
chain: B1 chain
partner: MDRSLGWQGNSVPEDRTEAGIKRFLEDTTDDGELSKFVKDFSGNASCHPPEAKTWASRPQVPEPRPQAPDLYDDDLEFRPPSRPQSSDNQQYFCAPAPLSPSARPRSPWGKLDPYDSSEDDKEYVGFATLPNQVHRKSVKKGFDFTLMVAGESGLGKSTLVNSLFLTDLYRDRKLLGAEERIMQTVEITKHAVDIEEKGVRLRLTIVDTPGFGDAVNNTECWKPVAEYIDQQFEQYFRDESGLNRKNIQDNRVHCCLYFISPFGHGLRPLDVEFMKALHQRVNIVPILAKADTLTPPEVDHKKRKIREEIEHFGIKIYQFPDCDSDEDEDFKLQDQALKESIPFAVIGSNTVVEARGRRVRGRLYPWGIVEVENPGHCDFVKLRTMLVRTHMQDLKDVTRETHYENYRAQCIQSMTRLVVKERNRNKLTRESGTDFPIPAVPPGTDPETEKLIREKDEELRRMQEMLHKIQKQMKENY
B4: Septin-12 (Homo sapiens), Q8IYM1 (parent)
chain: B1 chain
partner: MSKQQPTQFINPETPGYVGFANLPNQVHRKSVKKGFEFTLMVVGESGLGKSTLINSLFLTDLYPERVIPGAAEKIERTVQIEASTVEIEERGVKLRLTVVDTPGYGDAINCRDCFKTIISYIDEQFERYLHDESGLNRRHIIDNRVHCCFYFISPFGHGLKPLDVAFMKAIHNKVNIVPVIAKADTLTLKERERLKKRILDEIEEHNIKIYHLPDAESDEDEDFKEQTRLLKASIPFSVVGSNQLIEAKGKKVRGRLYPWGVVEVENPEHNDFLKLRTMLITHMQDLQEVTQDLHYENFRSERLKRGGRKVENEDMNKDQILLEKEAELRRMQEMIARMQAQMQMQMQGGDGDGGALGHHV

Variants of: B1
Details: with sept6_human SEPTIN6, Q14141

Question: With MDPLRRSPSPCLSSQPSSPSTPPCEMLGPVGIEAVLDQLKIKAMKMGFEFNIMVVGQSGLGKSTMVNTLFKSKVWKSNPPGLGVPTPQTLQLHSLTHVIEEKGVKLKLTVTDTPGFGDQINNDNCWDPILGYINEQYEQYLQEEILITRQRHIPDTRVHCCVYFVPPTGHCLRPLDIEFLQRLCRTVNVVPVIARANSLTMEEREAFRRRIQQNLRTHCIDVYPQMCFDEDINDKILNSKLRDRIPFAVVGADQEHLVNGRCVLGRKTKWGIIEVENMAHCEFPLLRDLLIRSHLQDLKDITHNIHYENYRVIRLNESHLLPRGPGWVNLAPASPGQLTTPRTFKVCRGAHDDSDDEF [D197N] as the variant, how does the “effect of a mutation on the interaction” value read?
Answer: The value was “disrupting interaction”.

Variants of: B2
Details: with sept7_human SEPTIN7, Q16181

Question: For MDPLRRSPSPCLSSQPSSPSTPPCEMLGPVGIEAVLDQLKIKAMKMGFEFNIMVVGQSGLGKSTMVNTLFKSKVWKSNPPGLGVPTPQTLQLHSLTHVIEEKGVKLKLTVTDTPGFGDQINNDNCWDPILGYINEQYEQYLQEEILITRQRHIPDTRVHCCVYFVPPTGHCLRPLDIEFLQRLCRTVNVVPVIARANSLTMEEREAFRRRIQQNLRTHCIDVYPQMCFDEDINDKILNSKLRDRIPFAVVGADQEHLVNGRCVLGRKTKWGIIEVENMAHCEFPLLRDLLIRSHLQDLKDITHNIHYENYRVIRLNESHLLPRGPGWVNLAPASPGQLTTPRTFKVCRGAHDDSDDEF [D197N], which “effect of a mutation on the interaction” value is on record?
Answer: Its value is “disrupting interaction strength”.

Question: Which “effect of a mutation on the interaction” value does the source give for MDPLRRSPSPCLSSQPSSPSTPPCEMLGPVGIEAVLDQLKIKAMKMGFEFNIMVVGQSGLGKSTMVNTLFKSKVWKSNPPGLGVPTPQMLQLHSLTHVIEEKGVKLKLTVTDTPGFGDQINNDNCWDPILGYINEQYEQYLQEEILITRQRHIPDTRVHCCVYFVPPTGHCLRPLDIEFLQRLCRTVNVVPVIARADSLTMEEREAFRRRIQQNLRTHCIDVYPQMCFDEDINDKILNSKLRDRIPFAVVGADQEHLVNGRCVLGRKTKWGIIEVENMAHCEFPLLRDLLIRSHLQDLKDITHNIHYENYRVIRLNESHLLPRGPGWVNLAPASPGQLTTPRTFKVCRGAHDDSDDEF [T89M] here?
Answer: Its value is “disrupting interaction strength”.

Variants of: B2
Details: with sept7_human SEPTIN7, Q16181
Remark: another data set of the same source

Question: MDPLRRSPSPCLSSQPSSPSTPPCEMLGPVGIEAVLDQLKIKAMKMGFEFNIMVVGQSGLGKSTMVNTLFKSKVWKSNPPGLGVPTPQTLQLHSLTHVIEEKGVKLKLTVTDTPGFGDQINNDNCWDPILGYINEQYEQYLQEEILITRQRHIPDTRVHCCVYFVPPTGHCLRPLDIEFLQRLCRTVNVVPVIARANSLTMEEREAFRRRIQQNLRTHCIDVYPQMCFDEDINDKILNSKLRDRIPFAVVGADQEHLVNGRCVLGRKTKWGIIEVENMAHCEFPLLRDLLIRSHLQDLKDITHNIHYENYRVIRLNESHLLPRGPGWVNLAPASPGQLTTPRTFKVCRGAHDDSDDEF [D197N] was tested. Which “effect of a mutation on the interaction” value did it give?
Answer: Its value is “disrupting interaction”.

Question: MDPLRRSPSPCLSSQPSSPSTPPCEMLGPVGIEAVLDQLKIKAMKMGFEFNIMVVGQSGLGKSTMVNTLFKSKVWKSNPPGLGVPTPQMLQLHSLTHVIEEKGVKLKLTVTDTPGFGDQINNDNCWDPILGYINEQYEQYLQEEILITRQRHIPDTRVHCCVYFVPPTGHCLRPLDIEFLQRLCRTVNVVPVIARADSLTMEEREAFRRRIQQNLRTHCIDVYPQMCFDEDINDKILNSKLRDRIPFAVVGADQEHLVNGRCVLGRKTKWGIIEVENMAHCEFPLLRDLLIRSHLQDLKDITHNIHYENYRVIRLNESHLLPRGPGWVNLAPASPGQLTTPRTFKVCRGAHDDSDDEF [T89M] was tested. Which “effect of a mutation on the interaction” value did it give?
Answer: Its value is “decreasing interaction”.

Variants of: B3
Details: with sept4_human SEPTIN4, O43236

Question: How did the “effect of a mutation on the interaction” value turn out when MDPLRRSPSPCLSSQPSSPSTPPCEMLGPVGIEAVLDQLKIKAMKMGFEFNIMVVGQSGLGKSTMVNTLFKSKVWKSNPPGLGVPTPQTLQLHSLTHVIEEKGVKLKLTVTDTPGFGDQINNDNCWDPILGYINEQYEQYLQEEILITRQRHIPDTRVHCCVYFVPPTGHCLRPLDIEFLQRLCRTVNVVPVIARANSLTMEEREAFRRRIQQNLRTHCIDVYPQMCFDEDINDKILNSKLRDRIPFAVVGADQEHLVNGRCVLGRKTKWGIIEVENMAHCEFPLLRDLLIRSHLQDLKDITHNIHYENYRVIRLNESHLLPRGPGWVNLAPASPGQLTTPRTFKVCRGAHDDSDDEF [D197N] was run?
Answer: Its value is “disrupting interaction”.

Variants of: B4
Details: with sept2_human SEPTIN2, Q15019

Question: Which “effect of a mutation on the interaction” value does the source give for MDPLRRSPSPCLSSQPSSPSTPPCEMLGPVGIEAVLDQLKIKAMKMGFEFNIMVVGQSGLGKSTMVNTLFKSKVWKSNPPGLGVPTPQTLQLHSLTHVIEEKGVKLKLTVTDTPGFGDQINNDNCWDPILGYINEQYEQYLQEEILITRQRHIPDTRVHCCVYFVPPTGHCLRPLDIEFLQRLCRTVNVVPVIARANSLTMEEREAFRRRIQQNLRTHCIDVYPQMCFDEDINDKILNSKLRDRIPFAVVGADQEHLVNGRCVLGRKTKWGIIEVENMAHCEFPLLRDLLIRSHLQDLKDITHNIHYENYRVIRLNESHLLPRGPGWVNLAPASPGQLTTPRTFKVCRGAHDDSDDEF [D197N] here?
Answer: Its value is “disrupting interaction”.
